Measurements taken from the supplement of paper PMC10567573.
± gives the standard deviation.

Assay: protein stability index of a GFP-peptide fusion (GPS, HEK-293T) (PSI 1-6); higher = more stable
[1] = treatment: DMSO, c terminus: a fixed tail appended
[2] = treatment: MLN4924 1 uM, 8 h, c terminus: a fixed tail appended
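Note: 24-mer peptide tiles fused after GFP, lentivirally expressed, FACS-sorted into six equal bins by GFP/DsRed ratio, decoded by Illumina sequencing, PSI is the read-weighted mean bin number.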

Row | Sequence | protein stability index [1] | protein stability index [2] | protein stability index (treatment: DMSO, c terminus: native) | protein stability index (treatment: MLN4924 1 uM, 8 h, c terminus: native)
1 | EHGYENMNHFTVNLNREEKIIREI [TRIM55] | 3.64 ± 0.19 | 3.85 ± 0.27 | – | –
2 | DSDVPEQRDSKCKVKWTHEEDEQL [MYBL2] | 5.44 ± 0.32 | 4.94 ± 0.76 | – | –
3 | VEFNHTGELLATGDKGGRVVIFQR [PPP2R2C] | 2.54 ± 0.59 | 2.85 ± 0.44 | – | –
4 | QFLLELLSDKSCQSFISWTGDGWE [ETS2] | 1.83 ± 0.38 | 1.85 ± 0.29 | – | –
5 | QVGTLLFRSRSRLTHLSLSRRASE [CDC25B] | 2.93 ± 0.39 | 3 ± 0.13 | – | –
6 | PQFTGILQLLQSRTSRKFLACRLT [INTS3] | 2.18 ± 0.41 | 2.16 ± 0.27 | – | –
7 | HTDSKYEHAIAEAQKNMYFKTRLK [ZNF396] | 3.8 ± 0.22 | 3.5 ± 0.32 | – | –
8 | TLALLLNFLACLASFCVETNNGAG [SCAMP3] | 3.06 ± 0.2 | 2.88 ± 0.89 | – | –
9 | HRVKLTNSTLDPHGHLILHSMHKY [TBX6] | 2.37 ± 0.35 | 2.71 ± 0.2 | – | –
10 | TQEQARKEFQQVFIPECNDDGTYS [SMOC2] | 4.94 ± 0.27 | 4.84 ± 0.18 | – | –
11 | ENVLHFKAQGHGAKGDNVYEFHLE [HACD3] | 3.57 ± 0.3 | 3.79 ± 0.17 | – | –
12 | PSSNEEIRLVDDAFGKICHMVSDG [INTS4] | 4.18 ± 0.23 | 4.5 ± 0.2 | – | –
13 | SWPRASPASGASSIKPEASQMPPP [SCNN1D] | 4.62 ± 0.27 | 4.63 ± 0.38 | – | –
14 | TIRLRPRQVLCEKCKSTLSPPEAS [PWWP2B] | 3.23 ± 0.3 | 3.75 ± 0.6 | – | –
15 | PEVLDRESRDRPSCAPSASIPKLK [PWWP2B] | 5.04 ± 0.21 | 5.25 ± 0.15 | – | –
16 | YENCLQALADVEVKYIVERTMLDF [NLN] | 2.08 ± 0.28 | 2.22 ± 0.51 | – | –
17 | TSLGLTYDGMLSDVQSMPKTGILI [MAGEA10] | 1.93 ± 0.39 | 2.13 ± 0.41 | – | –
18 | KHRIRRVLIVDWDVHHGQGTQFTF [HDAC6] | 3.35 ± 0.42 | 3.14 ± 0.83 | – | –
19 | ELRFLLVYLHGDDHQDSDEFCRNT [FAF2] | 2.29 ± 0.23 | 2.43 ± 0.32 | – | –
20 | TFASLIGPFGGFFASGFKRAFKIK [CDS1] | 2.66 ± 0.73 | 1.85 ± 0.26 | – | –
21 | VIYCLGGYDGLNILNSVEKYDPHT [KLHL12] | 2.39 ± 0.54 | 2.18 ± 0.39 | – | –
22 | RRGSTPLHMAVERRVRGVVELLLA [RIPK4] | 2.9 ± 0.085 | 2.67 ± 0.045 | – | –
23 | LGLYINFRHLYKQRRRRYGQKKKK [HACD3] | 2.37 ± 0.22 | 2.61 ± 0.34 | – | –

Row | Sequence | protein stability index [1] | protein stability index [2] | protein stability index (treatment: DMSO, c terminus: native) | protein stability index (treatment: MLN4924 1 uM, 8 h, c terminus: native)
24 | VHFSEAIEKFIREPSLKATMGLAG [ALG2] | 2.33 ± 0.27 | 2.43 ± 0.24 | – | –
25 | PAPAPLVPQDPDLEEEEEEEDLVL [ZBTB22] | 5.59 ± 0.33 | 5.69 ± 0.2 | – | –
26 | GLAFIAFTEAMTHFPASPFWSVMF [SLC6A17] | 3.15 ± 0.1 | 3.13 ± 0.51 | – | –
27 | RGLSQNLFSNSDHQRDGTLGALHT [SASS6] | 3.87 ± 0.26 | 3.81 ± 0.17 | – | –
28 | HNCQLHRISFCADDKTDKRIFTFI [GULP1] | 2.61 ± 0.36 | 2.4 ± 0.52 | – | –
29 | VLEQFLTILPQEIQSRVQELHPES [ZNF263] | 2.56 ± 0.31 | 2.53 ± 0.39 | – | –
30 | ITIEPGTSYRLQGLKPNSLYYFRL [PTPRD] | 2.63 ± 0.12 | 2.61 ± 0.43 | – | –
31 | LHCWLNAFAEMLRFGDRMFYKDWW [SOAT1] | 2.97 ± 0.3 | 2.77 ± 0.6 | – | –
32 | LISKLPYIHFFHTVLKQIAPEYFE [DENND6A] | 2.64 ± 0.28 | 2.37 ± 0.63 | – | –
33 | FMEFYQDVKDWWLFGFYFCMPLVC [EDNRA] | 3.155 ± 0.026 | 3.2 ± 0.56 | – | –
34 | LVAEILPAPGKLLGPCVVGYGIYY [SAT2] | 2.66 ± 0.94 | 2.53 ± 0.44 | – | –
35 | ELEDKDGLQSAQPTEGQGSLLTNW [MYBL2] | 5.03 ± 0.36 | 5.35 ± 0.31 | – | –
36 | GGPAQNAPHQQPPAPPSDALLDLH [TFE3] | 5.06 ± 0.29 | 5.29 ± 0.2 | – | –
37 | ITCSSTMSYSCCLPSLGCRTSCSS [KRT34] | 2.19 ± 0.16 | 2.1 ± 0.32 | – | –
38 | YTFGSNQHGQLGTNTRRGSRAPCK [NEK8] | 4.27 ± 0.52 | 4.22 ± 0.39 | – | –
39 | VELARYLVDVRQEQLQGFNTRVRE [DNAAF3] | 2.54 ± 0.36 | 2.77 ± 0.13 | – | –
40 | PLFSEDVVLKLFLSFSGSDVQNKL [SNX8] | 2.1 ± 0.45 | 2.31 ± 0.39 | – | –
41 | LLRMCSHGEGKINYYNFVRAFSN [EFHC1] | – | – | 2.32 ± 0.66 | 2.08 ± 0.57
42 | ARVTGELTMTFPAGIVRVFSGTPP [FCHO1] | 2.51 ± 0.16 | 2.43 ± 0.23 | – | –
43 | PECGEIFAHSSNLLRHQRIHTGER [ZNF263] | 3.88 ± 0.24 | 3.91 ± 0.073 | – | –
44 | PLPHPGAAPWPMAFPYQYPPPPHP [DVL3] | 3.15 ± 0.28 | 3.41 ± 0.13 | – | –
45 | SSCIPKAFGNPKFALQGLPLNCAP [IRX6] | 2.46 ± 0.25 | 2.75 ± 0.18 | – | –
46 | TAGKVLAHFYGVKLEGKVPMHKLF [ESRRA] | 2.41 ± 0.39 | 2.44 ± 0.79 | – | –

Row | Sequence | protein stability index [1] | protein stability index [2] | protein stability index (treatment: DMSO, c terminus: native) | protein stability index (treatment: MLN4924 1 uM, 8 h, c terminus: native)
47 | SVEYGYRPGATAVPTPLTNVQILL [FCHO1] | 2.06 ± 0.62 | 2.03 ± 0.48 | – | –
48 | PPELTASRQSFRMAMGNPSEFFVD [DVL3] | 4.17 ± 0.21 | 3.83 ± 0.21 | – | –
49 | TLSNPQMSLEGTEKASWLGEQPQF [ELF3] | 4.26 ± 0.34 | 4.21 ± 0.37 | – | –
50 | VCYFTNWAQYRQGEARFLPKDLDP [CHIT1] | 2.32 ± 0.14 | 2.34 ± 0.17 | – | –
51 | YTAQQDQELDIKKNERLWLLDDSK [NCK2] | 4.37 ± 0.27 | 4.65 ± 0.15 | – | –
52 | PGRREGCDICAGKAGCPIVEEPLG [RPS21] | 4.09 ± 0.33 | 4.25 ± 0.072 | – | –
53 | HNIVFGDYTWTEFDEPFLTRNVQS [TRIP13] | 2.63 ± 0.06 | 2.61 ± 0.32 | – | –
54 | LTMTFPAGIVRVFSGTPPPPVLSF [FCHO1] | 2.92 ± 0.5 | 3.13 ± 0.54 | – | –
55 | LKNKCCPPPCKFGEGKLSKRLKHK [C22orf31] | 3.49 ± 0.21 | 3.74 ± 0.48 | – | –
56 | YQVAALQGDLASLRAELQGHHAEK [TNFSF13B] | 3.71 ± 0.14 | 3.88 ± 0.099 | – | –
57 | VQYGAGVACSETAPDLVLNAEMVQ [LOXL2] | 4.108 ± 0.007 | 4.47 ± 0.25 | – | –
58 | QWRIRNLPYPKDVYSVSVDQKERC [DPCD] | 3.32 ± 0.42 | 3.17 ± 0.21 | – | –
59 | PDTQENRRMFSSLFQFSNCSQGQQ [CCDC3] | 3.67 ± 0.19 | 3.51 ± 0.17 | – | –
60 | MSAKLGKSSSLLTQTSEECNGILT [ZNF396] | 3.99 ± 0.16 | 4.2 ± 0.22 | – | –
61 | QRAQAEVLQSVRELSRSRKLYGQR [FCHSD1] | 3.76 ± 0.2 | 3.85 ± 0.36 | – | –
62 | FSHDGLHVASLADDKMVRFWRIDE [WSB1] | 2.44 ± 0.48 | 2.72 ± 0.52 | – | –
63 | PPPPMQPTVPSAATSQPTPSQHSA [CCDC6] | 5.23 ± 0.12 | 5.47 ± 0.18 | – | –
64 | VSTMRCKTRQKSEKQMEEKRRANQ [PPEF2] | 4.41 ± 0.7 | 4.79 ± 0.24 | – | –
65 | SRSENVLSRLSLMAMPNGFHEDGP [PSD2] | 3.73 ± 0.17 | 3.87 ± 0.27 | – | –
66 | LLKCVRESDPSDPNKDMVVQLIDD [SRPK2] | 4.6 ± 0.41 | 4.57 ± 0.079 | – | –
67 | PKPSGLEPGPAAYGLKPLTPNSKY [KCTD13] | 4.42 ± 0.23 | 4.22 ± 0.26 | – | –
68 | WLISEEEKTQKNQCWKSLFIDTYS [FBXO3] | 2.16 ± 0.3 | 2.45 ± 0.33 | – | –
69 | STIGFKLPNHRAAKRLWKVCVEHH [EPB41L3] | 2.26 ± 0.27 | 2.58 ± 0.45 | – | –

Row | Sequence | protein stability index [1] | protein stability index [2] | protein stability index (treatment: DMSO, c terminus: native) | protein stability index (treatment: MLN4924 1 uM, 8 h, c terminus: native)
70 | AEKVNQDMCMKVPDDPEHLAARRQ [CRYL1] | 5.27 ± 0.61 | 5.15 ± 0.26 | – | –
71 | LIRYICGVVHPSNEVLSSDILPRW [INTS3] | 2.66 ± 0.26 | 2.56 ± 0.49 | – | –
72 | ILRLPLEHACTVRNLARSQSVKMK [TAF7L] | 2.92 ± 0.18 | 3.19 ± 0.34 | – | –
73 | RYLADLLPSVFGSLRDSGYFYDPI [RSPH3] | 2.55 ± 0.49 | 2.6 ± 0.66 | – | –
74 | AFHPLFSLTSGACRLDYRRPENRS [TCF25] | 2.29 ± 0.41 | 2.24 ± 0.24 | – | –
75 | LDKMLDPQVWREAATQVFFALGLG [SLC6A17] | 2.52 ± 0.68 | 2.25 ± 0.28 | – | –
76 | GVCMGLVAAACACGFTVAQIITSL [OR10K2] | 3.21 ± 0.34 | 3.04 ± 0.69 | – | –
77 | LLEEGGLVQVESVNLQVATYSKFQ [UFD1] | 2.85 ± 0.32 | 2.9 ± 0.31 | – | –
78 | HGPGHETPMTIPEFFRESVNRFGT [ACSBG2] | 3.54 ± 0.29 | 3.6 ± 0.13 | – | –
79 | RTHTGEQPYTCSICRRNFSRRSSL [ZNF75A] | 3.19 ± 0.44 | 3.67 ± 0.47 | – | –
80 | LRKAVLKNLYKLASQCCGVHVISL [PTGFR] | 2.79 ± 0.5 | 2.73 ± 0.99 | – | –
81 | APQNSFSAKLAPHYFHSISYKIEE [KCNK9] | 3.21 ± 0.12 | 3.34 ± 0.16 | – | –
82 | VHIETFTTRHGEVGSALHRESFTS [C10orf62] | 2.57 ± 0.35 | 2.47 ± 0.58 | – | –
83 | ASALRTRMTGGRPPLPPPDDPATL [DYRK1B] | 4.65 ± 0.13 | 4.87 ± 0.23 | – | –
84 | HSEGRVEVYYDGQWGTVCDDDFSI [LOXL2] | 3.23 ± 0.33 | 3.56 ± 0.33 | – | –
85 | EEAEWESINVLLMMHGLKPLSLVK [CEP70] | 2.36 ± 0.66 | 2.31 ± 0.35 | – | –
86 | RLQCPFEQELLRRQQRLNQLEKPP [FAM107A] | 3.93 ± 0.33 | 4.14 ± 0.18 | – | –
87 | KDAAKQIAWIKDKLLHIYYQNSID [PDS5B] | 1.78 ± 0.31 | 2.39 ± 0.26 | – | –
88 | RFRDFVDALEDSLEEVAVQQTGDD [PBXIP1] | 4.87 ± 0.44 | 4.9 ± 0.27 | – | –
89 | KLSCLFAGPHSTLTPPCSPPEDGL [SNX8] | 3.25 ± 0.18 | 3.19 ± 0.4 | – | –
